# US20170298425
protein,measurement,value
DED-TlpA-CC (TlpA coiled-coil domain with Asp-Glu-Asp appended to the N-terminus) (protein) DEDMRPATYEPEQIIEAGLALQAEGRNITGFALRNQVGGGNPTRLRQIWDEYQASQSTVVTEPVAELPVEVAEEVKAVSAALSERITQLATELNDKAVRAAERRVAEVTRAAGEQTAQAERELADAAQTVDDLEEKLDELQDRYDSLTLALESERSLRQQHDVEMAQLKERLAAAEENTRQREERYQEQKTVLQDALNAEQAQHKNTREDLQKRLEQISAEANARTEELKSERDKVNTLLTRLESQENALASERQQHLATRETLQQRLEQAIADTQARAGEIALERDRVSSLTARLESQEKASSEQLVRMGSEIASLTERCTQLENQRDDARLETMGEKETVAALRGEAEALKRQNQSLMAALSGNKQTGGQNA,"Hill coefficient (fit of CD melting curve at 222 nm, 25-50 C)",24.7
TlpA-CC-DED (TlpA coiled-coil domain with Asp-Glu-Asp appended to the C-terminus) (protein) MRPATYEPEQIIEAGLALQAEGRNITGFALRNQVGGGNPTRLRQIWDEYQASQSTVVTEPVAELPVEVAEEVKAVSAALSERITQLATELNDKAVRAAERRVAEVTRAAGEQTAQAERELADAAQTVDDLEEKLDELQDRYDSLTLALESERSLRQQHDVEMAQLKERLAAAEENTRQREERYQEQKTVLQDALNAEQAQHKNTREDLQKRLEQISAEANARTEELKSERDKVNTLLTRLESQENALASERQQHLATRETLQQRLEQAIADTQARAGEIALERDRVSSLTARLESQEKASSEQLVRMGSEIASLTERCTQLENQRDDARLETMGEKETVAALRGEAEALKRQNQSLMAALSGNKQTGGQNADED,"Hill coefficient (fit of CD melting curve at 222 nm, 25-50 C)",16.7
"TlpA-CC WT (TlpA coiled-coil domain, wild type) (protein) MRPATYEPEQIIEAGLALQAEGRNITGFALRNQVGGGNPTRLRQIWDEYQASQSTVVTEPVAELPVEVAEEVKAVSAALSERITQLATELNDKAVRAAERRVAEVTRAAGEQTAQAERELADAAQTVDDLEEKLDELQDRYDSLTLALESERSLRQQHDVEMAQLKERLAAAEENTRQREERYQEQKTVLQDALNAEQAQHKNTREDLQKRLEQISAEANARTEELKSERDKVNTLLTRLESQENALASERQQHLATRETLQQRLEQAIADTQARAGEIALERDRVSSLTARLESQEKASSEQLVRMGSEIASLTERCTQLENQRDDARLETMGEKETVAALRGEAEALKRQNQSLMAALSGNKQTGGQNA","Hill coefficient (fit of CD melting curve at 222 nm, 25-50 C)",19.1
